The values that follow come from CN101309933A (MEDIMMUNE LLC, dated 2008).

The target of assay [1] is T1, 小鼠EphA2 (expressed on cells) (mouse, UniProt Q03145 26-977).
T1 construct: whole, on cells; also called mouse EphA2; EphA2 on CT26, 4T1
Put plainly: flow cytometry on cell lines, 1 μg antibody, PE goat anti-human IgG. (Flow cytometry measures light scatter and fluorescence of single cells or particles in a stream.)

Assay [2] deals with T2, 人EphA2 (expressed on cells) (human, UniProt P29317 24-976).
T2 construct: whole, on cells; also called human EphA2; EphA2 on PC3, HUVEC and other human cell lines
The description is as above.

T2 sequence (P29317 24-976): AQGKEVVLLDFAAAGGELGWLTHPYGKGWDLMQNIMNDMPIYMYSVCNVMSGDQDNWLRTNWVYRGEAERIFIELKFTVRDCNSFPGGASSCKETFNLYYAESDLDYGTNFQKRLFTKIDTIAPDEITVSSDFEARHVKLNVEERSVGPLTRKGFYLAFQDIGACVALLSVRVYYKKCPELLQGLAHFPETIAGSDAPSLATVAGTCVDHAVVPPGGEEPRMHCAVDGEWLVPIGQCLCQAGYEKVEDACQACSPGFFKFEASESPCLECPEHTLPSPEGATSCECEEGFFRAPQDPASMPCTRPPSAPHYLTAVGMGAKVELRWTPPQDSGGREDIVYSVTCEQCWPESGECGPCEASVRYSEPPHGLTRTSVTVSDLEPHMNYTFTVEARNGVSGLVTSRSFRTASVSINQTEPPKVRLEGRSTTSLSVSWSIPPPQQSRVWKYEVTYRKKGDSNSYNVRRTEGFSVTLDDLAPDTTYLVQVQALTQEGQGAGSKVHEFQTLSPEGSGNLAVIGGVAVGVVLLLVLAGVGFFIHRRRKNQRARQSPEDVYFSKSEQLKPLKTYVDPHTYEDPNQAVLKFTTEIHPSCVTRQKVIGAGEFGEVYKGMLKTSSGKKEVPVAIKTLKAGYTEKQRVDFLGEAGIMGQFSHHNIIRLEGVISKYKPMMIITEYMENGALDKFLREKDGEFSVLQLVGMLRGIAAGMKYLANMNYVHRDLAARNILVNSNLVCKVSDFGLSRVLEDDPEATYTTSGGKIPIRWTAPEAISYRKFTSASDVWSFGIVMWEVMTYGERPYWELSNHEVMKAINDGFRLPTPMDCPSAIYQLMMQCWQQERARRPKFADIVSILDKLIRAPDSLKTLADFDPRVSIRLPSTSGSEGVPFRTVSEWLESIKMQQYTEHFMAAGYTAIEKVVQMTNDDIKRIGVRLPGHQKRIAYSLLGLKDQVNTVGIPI
T1 sequence (Q03145 26-977): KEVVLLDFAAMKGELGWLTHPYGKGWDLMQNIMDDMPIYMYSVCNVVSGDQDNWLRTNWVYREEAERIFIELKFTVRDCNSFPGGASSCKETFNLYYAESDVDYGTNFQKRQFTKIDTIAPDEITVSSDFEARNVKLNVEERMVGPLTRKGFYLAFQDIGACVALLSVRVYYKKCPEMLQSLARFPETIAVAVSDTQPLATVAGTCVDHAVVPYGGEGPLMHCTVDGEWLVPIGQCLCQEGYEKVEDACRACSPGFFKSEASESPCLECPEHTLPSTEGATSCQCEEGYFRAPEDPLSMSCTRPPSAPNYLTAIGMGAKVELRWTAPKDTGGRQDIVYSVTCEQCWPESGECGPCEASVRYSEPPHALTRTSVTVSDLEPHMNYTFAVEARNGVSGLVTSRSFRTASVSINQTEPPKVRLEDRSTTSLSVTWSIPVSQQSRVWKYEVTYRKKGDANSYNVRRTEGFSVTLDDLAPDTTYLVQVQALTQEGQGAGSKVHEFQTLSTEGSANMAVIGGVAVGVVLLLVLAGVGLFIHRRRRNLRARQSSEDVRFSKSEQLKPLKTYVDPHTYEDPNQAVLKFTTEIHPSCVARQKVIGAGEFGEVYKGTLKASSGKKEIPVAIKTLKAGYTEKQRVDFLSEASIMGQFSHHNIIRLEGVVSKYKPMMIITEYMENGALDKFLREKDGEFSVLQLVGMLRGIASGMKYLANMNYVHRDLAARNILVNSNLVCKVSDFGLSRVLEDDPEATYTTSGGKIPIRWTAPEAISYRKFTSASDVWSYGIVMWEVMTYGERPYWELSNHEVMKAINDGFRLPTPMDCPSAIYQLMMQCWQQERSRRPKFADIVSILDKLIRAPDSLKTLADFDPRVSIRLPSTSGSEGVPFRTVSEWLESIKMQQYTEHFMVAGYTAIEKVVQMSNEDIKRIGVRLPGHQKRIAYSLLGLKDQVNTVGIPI

B1: 抗-EphA2抗体3F2 (antibody, V domains shown)
VH: EVQLVESGGGVVRPGGSLRLSCAASGFTVSDYSMNWVRQAPGKGLEWIGFIRNKANAYTTEYSASVKGRFTISRDDSKNTLYLQMNSLKTEDTAVYYCTTYPRYHAMDSWGQGTMVTVSS
VL: AIQLTQSPSSLSASVGDRVTITCRASQSISNNLHWYLQKPGQSPQLLIYYGFQSISGVPSRFSGSGSGTDFTLTISSLQPEDFATYYCQQANSWPLTFGGGTKLEIK
Take B1: the binding result in assay [1] and in assay [2] was “binds” each time.

B2: 抗-EphA2抗体1H3 (antibody, V domains shown)
VH: EVQLLESGGGLVQPGGSLRLSCAASGFTFSMYAMRWVRQAPGKGLEWVSVIGPSGGWTPYADSVKGRFTISRDNSKNTLYLQMNSLRAEDTAVYYCARDRGIYGMDVWGQGTTVTVSS
VL: DIQMTQSPSFLSASVGDRVTITCRASQGISSYLAWYQQKPGKAPKLLIYAASTLQSGVPSRFSGSGSGTEFTLTISSLQPEDFATYYCLELNNYPFTFGLGTKVHIK
As to B2, the binding result in assay [1] and in assay [2] was “binds” throughout.
